Assay in all cases: SPR, antibody captured, C2 as analyte;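 further: biacore SPR at 37 °C, anti-C2 mAbs captured via goat anti-human IgG on CM5 chips, double-referenced sensorgrams fit to a 1:1 kinetic or steady-state model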
(In general: In SPR one partner is held on a chip, and binding of the other changes the refractive index at the surface.)

The target of one assay is T1, human C2 P650A (human, UniProt P06681 21-752).
T1 sequence: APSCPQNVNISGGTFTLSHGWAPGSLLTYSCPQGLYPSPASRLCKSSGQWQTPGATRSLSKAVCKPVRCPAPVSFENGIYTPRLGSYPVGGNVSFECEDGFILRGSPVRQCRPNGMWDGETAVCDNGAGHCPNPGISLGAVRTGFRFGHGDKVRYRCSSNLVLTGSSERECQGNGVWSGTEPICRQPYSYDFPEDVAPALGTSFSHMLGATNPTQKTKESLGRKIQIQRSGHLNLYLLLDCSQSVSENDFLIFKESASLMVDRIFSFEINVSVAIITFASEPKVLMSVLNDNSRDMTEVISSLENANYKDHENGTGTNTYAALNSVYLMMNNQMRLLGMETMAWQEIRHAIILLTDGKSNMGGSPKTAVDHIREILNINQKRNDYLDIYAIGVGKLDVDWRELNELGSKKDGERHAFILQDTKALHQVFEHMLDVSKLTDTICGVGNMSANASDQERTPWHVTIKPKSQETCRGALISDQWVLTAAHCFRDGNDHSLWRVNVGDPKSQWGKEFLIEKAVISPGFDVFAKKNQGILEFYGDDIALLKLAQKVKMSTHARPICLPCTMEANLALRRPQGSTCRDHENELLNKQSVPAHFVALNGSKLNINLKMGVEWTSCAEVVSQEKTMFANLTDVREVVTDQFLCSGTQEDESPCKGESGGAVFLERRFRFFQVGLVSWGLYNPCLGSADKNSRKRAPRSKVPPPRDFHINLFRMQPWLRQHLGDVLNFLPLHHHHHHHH

Another assay has as its target T2, human C2 R519A (human, UniProt P06681 21-752).
T2 sequence: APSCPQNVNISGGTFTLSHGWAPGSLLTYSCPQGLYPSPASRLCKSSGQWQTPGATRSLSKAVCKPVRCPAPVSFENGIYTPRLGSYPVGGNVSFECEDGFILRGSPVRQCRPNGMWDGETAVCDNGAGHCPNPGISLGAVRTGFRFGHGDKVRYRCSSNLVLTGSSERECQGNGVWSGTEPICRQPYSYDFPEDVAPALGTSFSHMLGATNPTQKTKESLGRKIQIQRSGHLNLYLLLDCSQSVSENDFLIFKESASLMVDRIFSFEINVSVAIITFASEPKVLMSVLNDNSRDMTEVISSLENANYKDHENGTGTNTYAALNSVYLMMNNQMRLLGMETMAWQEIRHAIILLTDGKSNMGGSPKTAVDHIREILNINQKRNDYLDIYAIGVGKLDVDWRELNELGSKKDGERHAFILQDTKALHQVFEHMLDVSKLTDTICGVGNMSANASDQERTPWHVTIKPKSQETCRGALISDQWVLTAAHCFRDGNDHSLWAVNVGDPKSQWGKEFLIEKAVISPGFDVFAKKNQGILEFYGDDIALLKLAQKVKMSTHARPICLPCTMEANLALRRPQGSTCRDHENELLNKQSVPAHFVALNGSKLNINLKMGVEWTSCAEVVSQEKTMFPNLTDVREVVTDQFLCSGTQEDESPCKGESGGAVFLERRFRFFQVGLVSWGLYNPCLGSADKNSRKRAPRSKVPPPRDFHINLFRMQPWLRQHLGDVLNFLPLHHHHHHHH

The target in a further assay is T3, human C2 K676S (human, UniProt P06681 21-752).
T3 sequence: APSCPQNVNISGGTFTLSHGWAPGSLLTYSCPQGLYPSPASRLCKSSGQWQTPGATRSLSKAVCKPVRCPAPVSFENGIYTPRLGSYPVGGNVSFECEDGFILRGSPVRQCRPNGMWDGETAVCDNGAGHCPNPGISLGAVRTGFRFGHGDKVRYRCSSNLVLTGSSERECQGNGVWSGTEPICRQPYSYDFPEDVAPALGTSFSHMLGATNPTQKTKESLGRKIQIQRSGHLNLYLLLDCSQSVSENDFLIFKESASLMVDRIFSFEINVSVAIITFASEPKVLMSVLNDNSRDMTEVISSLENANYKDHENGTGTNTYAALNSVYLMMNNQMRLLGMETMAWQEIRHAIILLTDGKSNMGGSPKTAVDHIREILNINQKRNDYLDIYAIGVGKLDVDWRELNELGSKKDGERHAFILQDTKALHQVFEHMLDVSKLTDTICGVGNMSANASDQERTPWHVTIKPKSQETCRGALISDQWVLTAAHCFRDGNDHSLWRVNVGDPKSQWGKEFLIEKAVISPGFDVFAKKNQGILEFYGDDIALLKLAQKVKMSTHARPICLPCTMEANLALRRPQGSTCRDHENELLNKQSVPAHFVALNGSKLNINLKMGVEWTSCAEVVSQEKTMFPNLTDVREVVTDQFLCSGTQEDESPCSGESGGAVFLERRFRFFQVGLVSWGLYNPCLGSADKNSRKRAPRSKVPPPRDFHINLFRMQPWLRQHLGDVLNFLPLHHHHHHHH

The next assay has as its target T4, human C2 W420A (human, UniProt P06681 21-752).
T4 sequence: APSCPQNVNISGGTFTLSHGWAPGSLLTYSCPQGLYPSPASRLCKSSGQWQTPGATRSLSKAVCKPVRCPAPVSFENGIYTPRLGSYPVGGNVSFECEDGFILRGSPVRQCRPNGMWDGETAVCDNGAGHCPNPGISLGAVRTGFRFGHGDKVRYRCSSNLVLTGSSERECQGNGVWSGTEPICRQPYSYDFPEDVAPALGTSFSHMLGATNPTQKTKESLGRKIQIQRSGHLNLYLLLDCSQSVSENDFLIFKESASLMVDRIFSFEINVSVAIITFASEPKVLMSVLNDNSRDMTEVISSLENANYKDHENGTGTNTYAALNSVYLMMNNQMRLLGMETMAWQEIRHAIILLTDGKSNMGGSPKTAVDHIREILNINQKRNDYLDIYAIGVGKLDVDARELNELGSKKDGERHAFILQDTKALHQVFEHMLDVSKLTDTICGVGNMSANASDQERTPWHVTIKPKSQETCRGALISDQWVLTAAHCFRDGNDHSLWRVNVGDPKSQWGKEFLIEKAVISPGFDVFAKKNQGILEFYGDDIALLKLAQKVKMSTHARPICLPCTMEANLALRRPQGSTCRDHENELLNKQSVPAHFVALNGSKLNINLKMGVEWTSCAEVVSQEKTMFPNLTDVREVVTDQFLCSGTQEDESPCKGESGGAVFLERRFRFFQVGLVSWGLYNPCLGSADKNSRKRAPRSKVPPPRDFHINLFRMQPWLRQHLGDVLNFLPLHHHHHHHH

B1: RF16-226 (antibody, human IgG4 S228P, lambda)
heavy: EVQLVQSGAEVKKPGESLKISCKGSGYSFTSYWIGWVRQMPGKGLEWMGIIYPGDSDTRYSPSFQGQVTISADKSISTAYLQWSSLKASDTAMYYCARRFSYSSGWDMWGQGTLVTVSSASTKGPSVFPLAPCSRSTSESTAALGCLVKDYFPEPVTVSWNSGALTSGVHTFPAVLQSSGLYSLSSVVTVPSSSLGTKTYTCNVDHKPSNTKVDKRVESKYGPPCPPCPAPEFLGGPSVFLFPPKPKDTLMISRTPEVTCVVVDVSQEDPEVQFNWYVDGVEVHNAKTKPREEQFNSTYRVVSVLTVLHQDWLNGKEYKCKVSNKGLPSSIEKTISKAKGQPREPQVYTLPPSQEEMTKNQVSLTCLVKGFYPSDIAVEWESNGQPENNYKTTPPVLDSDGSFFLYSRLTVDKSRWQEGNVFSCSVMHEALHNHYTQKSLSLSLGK
light: SYELTQPPSVSVSPGQTARITCSGDALTSKYVAWYQQKSGLAPLLVIYEDTRRPSGIPAKFSGSSSGSVATLTISGAHGDDEADYYCYSTDASGHQRVFGGGTKLTVLSQPKAAPSVTLFPPSSEELQANKATLVCLISDFYPGAVTVAWKADGSPVKAGVETTKPSKQSNNKYAASSYLSLTPEQWKSHRSYSCQVTHEGSTVEKTVAPTECS
notes: pH-dependent anti-C2 antibody from a phage display library; also called WT
As to B1, the Kd (commonly the concentration at which binding is half-saturated) with human C2 P650A stood at 0.0183 µM; with human C2 R519A it was 0.0112 µM; with human C2 K676S it was 0.0163 µM; in the assay with human C2 W420A it was 0.0156 µM.

The values above are taken from patent publication US20220332804A1 (CSL INNOVATION, published 2022).
